Consider 2 molecules from patent US20170281807A1 (UNIVERSITY OF TENNESSEE RESEARCH FOUNDATION, published 2017).

B1: murine 11-1F4 monoclonal antibody (antibody, V domains shown)
VH: QVQLKESGPGLVAPSQSLSITCTVSGFSLSSYGVSWVRQPPGKGLEWLGVIWGDGSTNYHPNLMSRLSISKDISKSQVLFKLNSLQTDDTATYYCVTLDYWGQGTSVTVSS
VL: DVVMTQTPLSLPVSLGDQASISCRSSQSLVHRNGNTYLHWYLQKPGQSPKLLIYKVSNRFSGVPDRFSGSGSGTDFTLKISRVEAEDLGLYFCFQTTYVPNTFGGGTKLEIK
B2: peptide p66 (11-1F4 peptope) (peptide)
peptide: KAQKAQAKQAKQAQKAQKAQAKQAKQAQKAQKAQAKQAKQSVTVVTKHYAAFPENLLI
modifications: also: 125I-labeled in pull-down and in vivo work
notes: also called peptope p66

Ends that are not written are not given here.

Experiment [1] deals with B2. The experiment is described as follows: EuLISA, peptide coated, 11-1F4 titrated from 100 nM.
A further experiment addresses BSA (UniProt P02769 25-607). The experiment is described as follows: EuLISA, BSA-blocked wells without fibrils, p66 then 11-1F4.
Experiment [2] addresses T1, synthetic Aβ(1-40) amyloid fibrils (UniProt P05067 672-711).
T1 construct: domain: Aβ(1-40); Fibrillar aggregate; 1-40 counts on the Aβ peptide, not on the precursor
The experiment is described as follows: EuLISA, fibrils coated, p66 added and washed, detected by 11-1F4.

Chain of BSA (P02769 25-607 limits assumed): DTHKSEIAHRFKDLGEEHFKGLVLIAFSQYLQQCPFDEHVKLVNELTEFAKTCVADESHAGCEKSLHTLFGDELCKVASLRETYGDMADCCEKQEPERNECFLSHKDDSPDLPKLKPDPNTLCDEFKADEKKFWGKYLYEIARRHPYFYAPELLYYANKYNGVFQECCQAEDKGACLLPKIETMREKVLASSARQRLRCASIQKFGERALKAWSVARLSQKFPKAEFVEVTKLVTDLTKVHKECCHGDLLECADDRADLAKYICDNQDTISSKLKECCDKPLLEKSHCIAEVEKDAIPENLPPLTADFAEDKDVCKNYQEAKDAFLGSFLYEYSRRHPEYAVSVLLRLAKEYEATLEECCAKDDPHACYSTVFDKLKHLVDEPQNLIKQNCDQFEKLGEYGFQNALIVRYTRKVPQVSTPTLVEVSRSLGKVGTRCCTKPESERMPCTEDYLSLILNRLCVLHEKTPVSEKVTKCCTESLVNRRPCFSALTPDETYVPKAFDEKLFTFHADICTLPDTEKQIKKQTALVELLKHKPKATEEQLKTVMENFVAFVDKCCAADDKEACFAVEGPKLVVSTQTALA
T1 sequence (P05067 672-711 limits assumed): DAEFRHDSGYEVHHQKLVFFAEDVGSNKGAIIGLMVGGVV

In general, EC50 refers to the concentration needed to bring the measured effect to its halfway point. Higher therefore signals weaker potency. The molecule B1 gave an EC50 in experiment [1] of around 0.5 nM.
Take B2: the binding result is reported as “no binding (tested: 100 µl of a 0.83 mM stock solution)” with BSA and “binds” in experiment [2].
